Measurements as given in PMC5741177.
Where two headings read alike, the source gives them in different places.

Assays:
br2(SS) = target: T1, br2(SS) (UniProt P03069 226-248+=GGC, internal_change); test: EMSA
T1 chain: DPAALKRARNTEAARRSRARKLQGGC

brHis2 [1] = target: T2, brHis2 (UniProt P03069, L230H;R234H); test: EMSA
T2 chain: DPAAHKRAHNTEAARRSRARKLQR

brHis2 [2] = target: T2, brHis2; test: fluorescence anisotropy
brHis2 [3] = target: T2, brHis2; test: EMSA
br = target: T3, br (UniProt P03069); test: EMSA
T3 chain: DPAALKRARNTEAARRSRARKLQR

brHis = target: T4, brHis (UniProt P03069, R234H); test: EMSA
T4 chain: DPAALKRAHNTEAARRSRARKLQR

B1: AP-1 (dsDNA)
DNA 1: TGGAGATGACGTCATCTCGT
DNA 2: ACGAGATGACGTCATCTCCA
binding result (br2(SS)): binds
binding result (brHis2 [1]): binds

B2: TMR-GTCAT (dsDNA)
DNA 1: CGCGTCATAATTGAGAGCGC
DNA 2: GCGCTCTCAATTATGACGCG
Kd (brHis2 [2]): ~24 nM

B3: MUT (dsDNA)
DNA 1: CGCGTGATAATTGAGAGCGC
DNA 2: GCGCTCTCAATTATCACGCG
binding result (brHis2 [3]): no binding

B4: GTCAT (dsDNA)
DNA 1: CGCGTCATAATTGAGAGCGC
DNA 2: GCGCTCTCAATTATGACGCG
binding result (br): no binding
binding result (brHis): no binding
